Source: the supplement of paper PMC12042874
± gives the uncertainty stated by the source.

Assay: amyloid nucleation score (Sup35N fusion, yeast selection) (log enrichment); library NNK1; higher = more nucleation; inactive = no reads after selection
How it was run: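 Nucleation score is defined as the DiMSum log enrichment of output over input reads, with centring on the mode score of non-aggregating sequences. A minimum of 100 input reads was required for each sequence. Reads came from Illumina sequencing of plasmid inserts from psi-negative yeast expressing Sup35N fused to peptides of 20 random codons, induced with 100 μM copper sulfate for 24 hours and grown 7 days at 30°C on medium lacking adenine and uracil.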
TFTSLNNVVYIDISDTSDKN gave an amyloid nucleation score of 3.81 ± 0.073. Substance YTLFWNVEGNLWQTPSVCNL has an amyloid nucleation score of 0.141 ± 0.95. WVSKNRSSFMGCSSFTATWT gave an amyloid nucleation score of 0.884 ± 0.69. AFKWTSCYIFPLNWRKLFN gave an amyloid nucleation score of -0.336 ± 0.34. With DELGAMMRIFSFSCNP the amyloid nucleation score was -0.147 ± 1.1. In the case of FVSSVGKSEQVPSTEFFCVS, the amyloid nucleation score is reported as 0.174 ± 1.5. Work on HIVQRCFHVIYCSRVFYVLY yielded an amyloid nucleation score of 0.386 ± 0.53. With ALSSWLCGSG the amyloid nucleation score was 0.746 ± 0.9. GNSFISV gave an amyloid nucleation score of -0.088 ± 0.81. Substance LGFTRIGPGALTAKA has an amyloid nucleation score of -0.72 ± 1.2. In the case of ILSGVFLIRIEAKSNK, the amyloid nucleation score is reported as -0.179 ± 1.2. GGLVRSKFYFTL gave an amyloid nucleation score of 0.19 ± 0.25. QYTAHMLCLALLYRFEWNEN showed an amyloid nucleation score of 2.24 ± 0.27. For RKSAQYHG, the amyloid nucleation score was “inactive”. Work on ALNSQSGFKFERSMYLLVIG yielded an amyloid nucleation score of 1.17 ± 0.43. NDTNI showed an amyloid nucleation score of 0.175 ± 1.1. Work on LLGDKLV yielded an amyloid nucleation score of -0.096 ± 0.46. IGAHFQSNLVIKVNSLEN gave an amyloid nucleation score of 0.697 ± 0.63. For GSHWPYDGWWISYLWFHLR, the amyloid nucleation score was 0.858 ± 0.38. In the case of SSPKTRMVEGVCCYFVGSIY, the amyloid nucleation score is reported as 0.704 ± 1.2. For RWRFEVIKVTSFYMSFLKSA, the amyloid nucleation score was 0.234 ± 0.47. VIQRYRSVPI gave an amyloid nucleation score of 0.604 ± 0.67. In the case of FFRTSLCYDLVNSDEVDIIV, the amyloid nucleation score is reported as 0.411 ± 0.51. Work on VGRLGKFRGFSIGNYECSI yielded an amyloid nucleation score of 0.726 ± 0.55. With VLRCVISLQV the amyloid nucleation score was “inactive”. In the case of TFIKNVTNRVHYGNALTHLG, the amyloid nucleation score is reported as -0.204 ± 0.66. Work on WYRGMHLVARRFMTYLARKY yielded an amyloid nucleation score of 1.32 ± 0.65. Work on MSLMSPAYNATNYWAVWRHK yielded an amyloid nucleation score of -0.029 ± 0.27. TMGSLMFWF gave an amyloid nucleation score of -0.356 ± 0.95. In the case of NTNLVWR, the amyloid nucleation score is reported as 0.267 ± 0.36. DHTHLTTQNDICLMVSFTVE showed an amyloid nucleation score of 2.7 ± 0.096. Work on DMIKNAVNILLMMSVF yielded an amyloid nucleation score of -0.399 ± 0.28. Work on IEISDMSWFRPVMFNDAKEL yielded an amyloid nucleation score of 1.44 ± 0.53. With MRLERTNRGSAPWTLYYNQR the amyloid nucleation score was 1.09 ± 0.17. TQVSVFQ showed an amyloid nucleation score of -1.3 ± 0.83. With NLFLIDMNVWRLVVGGRQDW the amyloid nucleation score was 4.63 ± 0.073. With RNMKPIYFLRPTISVNRSNR the amyloid nucleation score was 0.594 ± 0.85. Substance SNRFVPSNSSKVGSNVIDAK has an amyloid nucleation score of 0.386 ± 0.36. RVTYETNGLWGKNVRYDIVN gave an amyloid nucleation score of 0.305 ± 0.34. SIVKRNLNAFAGLSLYMIFG gave an amyloid nucleation score of -0.764 ± 0.54. TISILCQYQVMGTIFIYVVQ showed an amyloid nucleation score of 1.66 ± 0.13. In the case of DPTTLYIEV, the amyloid nucleation score is reported as 1.29 ± 0.39. For FHLPALTSSLPA, the amyloid nucleation score was 0.102 ± 0.35. WCRIVG gave an amyloid nucleation score of 0.227 ± 0.57. Work on RRHLGRCTRSKLFNPLR yielded an amyloid nucleation score of 0.101 ± 0.54. RNKNFPSKGDLNQGGRNNIK gave an amyloid nucleation score of 0.877 ± 0.4. With YCMRFVQ the amyloid nucleation score was 1.52 ± 0.49. Substance HYMRWIGLRTDTKGPRSGSG has an amyloid nucleation score of -0.578 ± 0.86. With STIGNVY the amyloid nucleation score was -0.586 ± 0.51. Work on EMHFR yielded an amyloid nucleation score of 0.024 ± 0.65. TSRYVFRT showed an amyloid nucleation score of 0.925 ± 0.58. For KLPRTCAPLYHMLTHGVGHR, the amyloid nucleation score was -0.075 ± 0.72. MSALARVMLSMRYRIGT showed an amyloid nucleation score of -0.395 ± 1.1. Work on ENGLFKF yielded an amyloid nucleation score of 0.695 ± 0.32. For IFMRSAERGMRVLLEDDCRT, the amyloid nucleation score was 0.256 ± 0.61. With VCRKRCERQLKPL the amyloid nucleation score was 0.241 ± 0.24. In the case of YVLSLYTNGRSPSA, the amyloid nucleation score is reported as 0.203 ± 0.56. VLFFKVIIYVALRMVLMEKD gave an amyloid nucleation score of -1.18 ± 1. With GFKPWVVCWTWQAAPKVRSP the amyloid nucleation score was 0.702 ± 0.73. With VMLFSDVFWALMLHFYDPAF the amyloid nucleation score was -1.01 ± 0.61. VFVSIMWQY gave an amyloid nucleation score of 1.82 ± 0.51. With FFRGFSWRVCSSFSSLVELW the amyloid nucleation score was “inactive”. With ARSVKAIIKAICRGV the amyloid nucleation score was -0.055 ± 0.95. In the case of PIFMVSLST, the amyloid nucleation score is reported as -0.661 ± 0.66. Substance NFLFCFCHYCIWKVCTVAGC has an amyloid nucleation score of -0.073 ± 0.45. Substance TFGGHNVAGASMHGSFGGSL has an amyloid nucleation score of 0.242 ± 0.3. With TSFFADYVHTIKLLAPLSVG the amyloid nucleation score was “inactive”. Substance VIIKTRLELYKWRTMISSND has an amyloid nucleation score of -0.454 ± 0.63. Work on SEGCMSGRLCDRGVASFVWL yielded an amyloid nucleation score of 0.7 ± 0.97. LNVRGITIKLCHFRRIWYAQ showed an amyloid nucleation score of -1.25 ± 0.83. In the case of FSRDLLARGVDTPSVEFRSS, the amyloid nucleation score is reported as -0.362 ± 0.72. With RDGPSK the amyloid nucleation score was -0.422 ± 0.33. FHICDNRLDCSLIVVANSWK gave an amyloid nucleation score of 2.65 ± 0.18. Work on WVSSDITGRG yielded an amyloid nucleation score of 1.87 ± 0.65. Substance CFYMVSFEFR has an amyloid nucleation score of 1.12 ± 0.34. Work on SDYGLGMSDWGDFMDRVGLR yielded an amyloid nucleation score of 0.527 ± 1.2. Work on GFNLFCATESYYFFSLMVMG yielded an amyloid nucleation score of -0.13 ± 0.25. For SYDSRNASLVIIISWVMQPL, the amyloid nucleation score was 0.992 ± 0.16. Substance LFCKSPCYFVMLADKMHIWG has an amyloid nucleation score of 5.07 ± 0.11. HGPHYLLITGRGTRDNQSRD gave an amyloid nucleation score of -0.721 ± 0.65. With MSYRD the amyloid nucleation score was -0.995 ± 1.7. Work on VLMCDGFHALRKL yielded an amyloid nucleation score of 1.97 ± 0.36. For CPYRYYHTNLFMVIFLYRGM, the amyloid nucleation score was -0.349 ± 0.47. For NRVSFYATTNFSISRFGSWG, the amyloid nucleation score was “inactive”. With GSDTNSNRLIMLMFGTVFCA the amyloid nucleation score was 2.84 ± 0.16. YLSLTTEVWSNGHVWCGIGR gave an amyloid nucleation score of -0.043 ± 1.4. For FGSQVFTDGHMCMQSGGTWC, the amyloid nucleation score was 0.223 ± 0.34.
